Test results as given in the nanobody polyreactivity screen of Harvey et al. (2022).

Experiment: yeast display, Sf9 membrane polyspecificity reagent, FACS + sequencing; frameworks hold sequencing errors
How it was run: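 In a synthetic yeast display library (Saccharomyces cerevisiae BJ5465), nanobody expression was induced with galactose for 36–48 hours. FACS gates were set low and high (top ~1%) using anti-HA fluorescence for expression and streptavidin fluorescence for binding of the Sf9 membrane reagent. Each polyreactivity label is drawn from the gate of origin.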

| Sequence | polyreactivity (PSR sort gate) |
| --- | --- |
| QVQLVESGGGLVQAGGSLRLSCAASGIIFPRYAMGWYRQAPGKERELVAAITIGGRTNYSDSVKGRFTISRDNAKNTVYLQMNSLKPEDTAVYYCAAQTYVPYYEYDYWGQGTQVTVSS | low polyreactivity |
| QVQLVESGGGLVQAGGSLRLSCAASGIIFPRYMGWYRQEPGKERELVAAIRWSSDDTNYADSVKGRFTISRDNAKNTVYLQMNSLKPEDSAVYYCAKDSLYGVPFDVDYWGQGTQVTVSS | low polyreactivity |
| QVQLVESGGGLVQAGGSLRLSCAASGIIFPTYAMGWYRQAPGKERELVAAITSGGSTYYADSVKGRFTISRDNAKNTVYLQMNSLKPEDTAVYYCAAAYLGYGAVQPSYEGGYWGQGTQVTVSS | low polyreactivity |
| QVQLVESGGGLVQAGGSLRLSCAASGIIFPTYDMGWYRQAPGKERELVAAITWSTGSTTYADSVKGRFTISRDNAKNTVYLQMNSQKPEDTAVYYCNKDSEGSGGEFDYWGQGTQVTVSS | low polyreactivity |
| QVQLVESGGGLVQAGGSLRLSCAASGIIFPVYAMGWYRQAPGKERELVATIDSGGGTYYADSVKGRFTISRDNAKNTVYLQMNSLKPEDTAVYYCAADLWVGLVSLWDGYVEYDYWGQGTQVTVSS | low polyreactivity |
| QVQLVESGGGLVQAGGSLRLSCAASGIIFPYYAMGWYRPAPGKERELVAASTGRGTSTYADSVKGRFTISRDNAKNTVYLQMNSRKPEDTAVYYCAAVGWFADFLFSDINGYYWGQGTQVTVSS | low polyreactivity |
| QVQLVESGGGLVQAGGSLRLSCAASGIIFPYYAMGWYRQAPGKERELVAGISSSGGITYADSVKGRFTISRDNAKNTVYLQMNSLKPEDTAVYYCAARYPARGTLYYWGQGTQVTVSS | low polyreactivity |
| QVQLVESGGGLVQAGGSLRLSCAASGIIFPYYAMGWYRQAPGKERELVAGISWSGGSTYYADSVKGRFTISRDNAKNTVYLQMNSLKPEDTAVYYCAADYPATPDDDYWGQGTQVTVSS | high polyreactivity |
| QVQLVESGGGLVQAGGSLRLSCAASGIIFQAYAMGWYRQAPGKERELVAAISYSGGSTYYADSVKGRFTISRDNAKNTVYLQMNSLKPEDTAVYYCAATFYGYFDSVFSWGYYYWGQGTQVTVSS | low polyreactivity |
| QVQLVESGGGLVQAGGSLRLSCAASGIIFQAYDMGWYRQAPGKERELVAAISYSGGSTYYADSVKGRFTISRDNAKNTVYLQMNSQKPEDTAVYYCAATFYGYFDSVFSWGYYYCGQGTQVTVSS | low polyreactivity |
| QVQLVESGGGLVQAGGSLRLSCAASGIIFQFYAMGWYRQAPGKERELVAAISRSGGITHYADSVKGRFTISRDTAQNTVYLQMNSLKPEDTAVYYCAAVRQAYPRLDYWGQGTQVTVSS | high polyreactivity |
| QVQLVESGGGLVQAGGSLRLSCAASGIIFQFYAMVWYRQAPGKERELVAAISRSGGITHYADSVKGRFTISRDNAKNTVYLQMNILKPEDTAVYYCATRGTRSYFRTFYYWGQGTQVTVSS | high polyreactivity |
| QVQLVESGGGLVQAGGSLRLSCAASGIIFQGNAMGWYRQAPGKERELVAVITSRGGSTYYADSVKGRFTISRDNAKNTVYLQMNSLLPEDTAVYYCAKAKRYPQYYYWGQGTQVTVSS | high polyreactivity |
| QVQLVESGGGLVQAGGSLRLSCAASGIIFQNYDMGWYRQAPGKERELVAAITSGVSTYYADSVKGRFTIARYNAKNTVYLQMNSLKPEDTAVYYCAVVGGFRWIRMEYWGQGTQVTVSS | low polyreactivity |
| QVQLVESGGGLVQAGGSLRLSCAASGIIFQRNDMGWYRQAPGKEREFVAAITYIGGSTYYADSVKGRFTISRDNAKNTVYLQMNSLKPEDTAVYWGQGTQVTVSS | low polyreactivity |
| QVQLVESGGGLVQAGGSLRLSCAASGIIFQTYAMGWYRQAPGKERELVAAISRTGGSTYYADSVKGRFTISRDNAKITVYVQMHSLKPEDTAVYSCAAPRFAAPLRIGYVWGQVTQVTVSS | high polyreactivity |
| QVQLVESGGGLVQAGGSLRLSCAASGIIFQYYAMGGYRQAPGKERELVAAISWSGGSTYYADSVKGRFTISRDNAKNTVYLQMNSLKPEDTAVYYCAARSRSFWPYEGDYWGQGTQVTVSS | low polyreactivity |
